Measured values from patent US7183065.

Legend:
[1] = target: histone H1 peptide SEQ ID NO: 17 (human); assay: ELISA on coated peptide; rFab at 1.0, 3.0 and 10.0 µg/ml
[2] = target: histone H1 peptide SEQ ID NO: 20 (human); assay: as above

B1: NANUC-2 (Fab)
chain 1: VKLLEQSGGGVVQPGKSLRLSCAASGFTFRNYGMHWVRQAPGKGLEWVAGISSDGRKKKYVDSVKGRFTISRDKSKNTLYLQMNSLRAEDTAVYYCAKLSRAGGFDIWGQGTMVTVSS
chain 2: AELTQSPGTLSLFPGERATLSCRASQRISTSFLAWYQQKPGQSPRLLIFDASTRAPGIPDRFSASWSGTDFTLTISRLEPEDFAVYYCQHYGGSPWTFGQGTKVEIK
Q: With B1 as the binder, how does the OD405 [1] read?
A: 0.25 OD405

Q: And the OD405 [2]?
A: 0.5 OD405
